Values quoted from earlier work, collected in patent US20180228866A1, “COMPOSITIONS” (Sigmoid Pharma Limited, priority 2015, published 2018).

System: serum TNF-α, IFN-γ, IL-6
Conditions: within 1-4 hours after injection

Substance: OKT3: anti-CD3 mAb, administered as a systemic immunosuppressive agent during organ transplantation
- serum levels of proinflammatory cytokines such as TNF-α, IFN-γ, and IL-6: markedly elevated
